Measured values taken from patent publication US8541552.

Molecular target: T1, LTα1β2 (human, UniProt P01374)
T1 chain 1: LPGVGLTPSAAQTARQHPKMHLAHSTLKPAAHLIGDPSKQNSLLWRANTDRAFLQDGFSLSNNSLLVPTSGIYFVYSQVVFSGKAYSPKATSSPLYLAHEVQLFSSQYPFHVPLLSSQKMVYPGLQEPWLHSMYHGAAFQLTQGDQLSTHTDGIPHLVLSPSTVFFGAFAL
T1 chain 2: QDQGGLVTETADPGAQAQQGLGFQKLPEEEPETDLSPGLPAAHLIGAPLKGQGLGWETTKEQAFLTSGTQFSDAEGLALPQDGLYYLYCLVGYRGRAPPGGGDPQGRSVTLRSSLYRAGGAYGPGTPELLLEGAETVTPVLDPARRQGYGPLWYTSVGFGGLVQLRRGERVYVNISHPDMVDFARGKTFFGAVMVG
Assay: ELISA

binding result: no binding
B1: TNFRII.Fc (protein)
chain: LPAQVAFTPYAPEPGSTCRLREYYDQTAQMCCSKCSPGQHAKVFCTKTSDTVCDSCEDSTYTQLWNWVPECLSCGSRCSSDQVETQACTREQNRICTCRPGWYCALSKQEGCRLCAPLRKCRPGFGVARPGTETSDVVCKPCAPGTFSNTTSSTDICRPHQICNVVAIPGNASMDAVCTSTSPTRSMAPGAVHLPQPVSTRSQHTQPTPEPSTAPSTSFLLPMGPSPPAEGSTGD
